The target in this assay is MBP-Vpu full length (HIV-1 Vpu fused to maltose binding protein) (HIV-1) (UniProt P05919). The assay is described as follows: cryo-EM structure; single-particle cryoEM of MBP-FL Vpu at 10 µM in 25 mM Tris pH 7.4, 150 mM NaCl, 100 µM TCEP; two maps at ~25 Å; protomers counted by docking MBP into the densities.

In the case of “MBP-Vpu full length (HIV-1 Vpu fused to maltose binding protein) (from UniProt P05919 1-82) (natural protein)”, the stoichiometry N is 6 to 7.

As usually defined, the stoichiometry N is a count of units in the complex or per binding partner.

(Values after article PMC10483038.)
